Experimental data reported in patent US20230039487A1 (published 2023).

T1: hBCMA ECD hFc (ACRO, BC7-H5254) (human, UniProt Q02223 1-54)
T1 chain: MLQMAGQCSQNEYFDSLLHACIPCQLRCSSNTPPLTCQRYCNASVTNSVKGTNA

T2: hu (human) BCMA ECD His (ACRO, BCA-H522y) (human, UniProt Q02223 1-54)
T2 chain: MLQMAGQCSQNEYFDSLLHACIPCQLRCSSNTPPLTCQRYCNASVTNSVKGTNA


What was measured:
[1] = target: T1, hBCMA ECD hFc (ACRO, BC7-H5254); test: BLI (Fortebio)
[2] = target: T1, hBCMA ECD hFc (ACRO, BC7-H5254); test: ELISA
[3] = target: T2, hu (human) BCMA ECD His (ACRO, …); test: ELISA

Binder	Kd [1]	EC50 [2]	EC50 [3]
5F4 (antibody, V domains shown) VH: EVQLQQSGPELIKPGASVKMSCKASAGKWERWAHWVKQKPGQGLEWIGYKPAYWTSAYNEKFKGKATLTSDKSSSTAYMELSSLTSEDSAVYYCATLDYDDGYFDYWGQGTTLTVSS VL: EIVLTQSPGTLSLSPGERATLSCRASQSVSSSYLAWYQQKPGQAPRLLIYQASSDATGIPDRFSGSGSGTDFTLTISRLEPEDFAVYYCQQYGYPPSYTFGQGTKVEIK	< 1 pM	305 pM	
hu VH2-VL1 (antibody, V domains shown) VH: QVQLVQSGAEVKKPGASVKMSCKASGYTFTSYVVHWVRQAPGQGLEWIGYIIPYNDDTKYNEKFKGRVTLTSDKSTSTAYMELSSLRSEDTAVYYCARWDYDDGYFDYWGQGTTVTVSS VL: DVVMTQSPLSLPVTLGQPASISCRSSQSLLHSNGNTYLHWYLQKPGQSPQLLIYKVSNRFSGVPDRFSGSGSGTDFTLKISRVEAEDVGVYFCSQITHIPFTFGQGTKLEIK			50.6 pM
hu VH1-VL3 (antibody, V domains shown) VH: QVQLVQSGAEVKKPGASVKMSCKASGYTFTSYVVHWVRQAPGQGLEWIGYIIPYNDDTKYNEKFKGKATLTSDKSSSTAYMELSSLRSEDTAVYYCARWDYDDGYFDYWGQGTTVTVSS VL: DIVMTQTPLSLSVTPGQPASISCKSSQSLLHSNGNTYLHWYLQKPGQPPQLLIYKVSNRFSGVPDRFSGSGSGTDFTLKISRVEAEDVGVYYCSQITHIPFTFGQGTKLEIKR			54.5 pM
5E2 (antibody, V domains shown) VH: EVQLQQSGPELIKPGASVKMSCKASGYTFTSYVVHWVKQKPGQGLEWIGYIIPYNDDTKYNEKFKGKATLTSDKSSSTAYMELSSLTSEDSAVYYCARWDYDDGYFDYWGQGTTLTVSS VL: DVVMTQTPLSLPVTLGDQASISCRSSQSLLHSNGNTYLHWYLQKPGQSPKLLIYKVSNRFSGVPDRFSGSGSGTDFTLKISRVEAEDLGVYFCSQITHIPFTFGSGTKLEIKR	< 1 pM	279 pM	54 pM
R0317 (C11D5.3 BCMA mouse monoclonal antibody) (antibody, V domains shown) VH: QIQLVQSGPELKKPGETVKISCKASGYTFTDYSINWVKRAPGKGLKWMGWINTETREPAYAYDFRGRFAFSLETSASTAYLQINNLKYEDTATYFCALDYSYAMDYWGQGTSVTVSS VL: DIVLTQSPASLAMSLGKRATISCRASESVSVIGAHLIHWYQQKPGQPPKLLIYLASNLETGVPARFSGSGSGTDFTLTIDPVEEDDVAIYSCLQSRIFPRTFGGGTKLEIK	< 1 pM	320 pM	

Other lines, results leading:

Kd [1]	EC50 [2]	EC50 [3]	Binder
		20.6 pM	hu VH1-VL2 (antibody, V domains shown) VH: QVQLVQSGAEVKKPGASVKMSCKASGYTFTSYVVHWVRQAPGQGLEWIGYIIPYNDDTKYNEKFKGKATLTSDKSSSTAYMELSSLRSEDTAVYYCARWDYDDGYFDYWGQGTTVTVSS VL: DVVMTQTPLSLSVTPGQPASISCKSSQSLLHSNGNTYLHWYLQKPGQSPQLLIYKVSNRFSGVPDRFSGSGSGTDFTLKISRVEAEDVGVYFCSQITHIPFTFGQGTKLEIK
		47.4 pM	hu VH1-VL1 (antibody, V domains shown) VH: QVQLVQSGAEVKKPGASVKMSCKASGYTFTSYVVHWVRQAPGQGLEWIGYIIPYNDDTKYNEKFKGKATLTSDKSSSTAYMELSSLRSEDTAVYYCARWDYDDGYFDYWGQGTTVTVSS VL: DVVMTQSPLSLPVTLGQPASISCRSSQSLLHSNGNTYLHWYLQKPGQSPQLLIYKVSNRFSGVPDRFSGSGSGTDFTLKISRVEAEDVGVYFCSQITHIPFTFGQGTKLEIK
